Experimental findings from patent US20180201670A1 (published 2018) are described below.

What is called Kd is the free concentration of one partner at which half of the binding sites on the other are occupied at equilibrium, for simple one-to-one binding. Read a low Kd as higher affinity. By koff is commonly meant the first-order rate constant of dissociation. Low values mean a long-lived complex, high ones a short-lived complex. As usually defined, the kon is a measure of how fast the partners come together.

The target in assay [1] is T1, analyte of Example 8 (not named).
T1 construct: Target of the Biacore run of Hu-6C1-H3bL2
Description: Biacore (SPR); analyte not named. On the technique in general: Surface plasmon resonance follows binding to a sensor surface in real time, without labels.

For assay [2], the target named is T2, pH4-treated TTR (human, UniProt P02766 21-147). The assay can be described thus: Sandwich ELISA (pH 4-TTR). Background: An ELISA detects its analyte on a solid surface through an enzyme-linked reagent.
The target in assay [3] is T2, pH4-treated TTR. Description: ELISA; pH4-TTR captured on anti-His-coated plate, mAb 0.31-2.5 µg/ml. As for the experimental part:
Four lead mis-TTR mAbs (9D5, 14G8, 6C1, and 5A1) were assayed by ELISA at concentrations ranging from 0.31 to 2.5 μg/ml using both pH4.0-treated TTR (pH4-TTR) and native TTR as the coating antigen. TTR antigen preparation and ELISA protocols are described elsewhere in Materials and Methods (e-g).
Coated and blocked 96-well plates were treated with 50 μl per well of 2.5 μg/ml TTR antigen (either native TTR or pH4-TTR) for 1 hr. at room temperature. The plates were then washed two times with 250 μl per well of wash buffer (1× Tris Buffered Saline containing 0.05% Tween-20). Washed plates were then treated with 50 μl per well of the appropriate anti-TTR monoclonal antibody at concentrations ranging from of 0.31 to 2.5 μg/ml, for 1 hr.
The treated plates were washed 3 times with 250 μl perwell wash buffer. After washing, the plates were treated for 1 hr. with 50 μl per well of detection antibody comprising a 1:5,000 dilution of […] goat-anti-mouse (Jackson ImmunoResearch #115-035-164) in 1×PBS. The plate was then washed 3 times prior to the addition of 100 μl per well TMB substrate (Rockland). The HRP reaction was allowed to proceed at room temperature for 15 min. before quenching with a 50 μl per well volume of 1N […]. Spectroscopic absorbance was measured at a wavelength of 450 nm.

B1: Hu-6C1-H3bL2 (antibody, human IgG1, kappa, V domains shown)
VH: EVQLVESGGGLVQPGGSLKLSCAASGFTFSNYYMSWVRQAPGKRLEWVAYISIDGNNIYHPDSVKGRFTISRDNAKNTLYLQMNSLKAEDTAMYYCARDSDYGYFDVWGQGTLVTVSS
VL: DIVMTQTPLSLPVTPGEPASISCRSSQSIVHSNGNTYLEWYLQKPGQSPKLLIYKVSKRFSGVPDRFSGSGSGTDFTLKISRVEAEDVGVYYCFQGSHVPLTFGGGTKVEIKR
notes: also called Hu6C1VHv3b/VLv2; humanized 6C1 heavy chain version 3b / light chain version 2
For B1, in assay [1], the Kd was found to be 1.46 nM, the koff came out at 0.000545 s⁻¹ and the on-rate constant (kon) turned out to be 372000 M⁻¹ s⁻¹.

B2: 9D5 (antibody, V domains shown)
VH: EVKLVESGGGLVQPGGSLKLSCAASGFTFSSYTMSWVRQTPEKRLELVAEISNSGDTTYYPDTVKGRFTFSRDNAKNTLYLQMSSLKSEDTAMYYCARHYYYGGGYGGWFFDVWGTGTTVTVSS
VL: DIVMTQAAPSVPVTPGESVSISCRSSKSLLHSNGNTYLYWFLQRPGQSPQLLIYRVSNLASGVPDRFSGSGSGTAFTLRISRVEAEDVGVYYCMQHLEYPLTFGAGTKLELK
B2: the dissociation constant Kd in assay [2] stood at 257 nM; in assay [3], 282 nM.
